Assay results taken from patent publication US20220249679A1 (Mitsubishi Tanabe Pharma Corporation, priority 2018, published 2022).
Changes are numbered by the printed parent chain.

T1: human CD138 (Homo sapiens, UniProt P18827)
T1 sequence (P18827 23-310): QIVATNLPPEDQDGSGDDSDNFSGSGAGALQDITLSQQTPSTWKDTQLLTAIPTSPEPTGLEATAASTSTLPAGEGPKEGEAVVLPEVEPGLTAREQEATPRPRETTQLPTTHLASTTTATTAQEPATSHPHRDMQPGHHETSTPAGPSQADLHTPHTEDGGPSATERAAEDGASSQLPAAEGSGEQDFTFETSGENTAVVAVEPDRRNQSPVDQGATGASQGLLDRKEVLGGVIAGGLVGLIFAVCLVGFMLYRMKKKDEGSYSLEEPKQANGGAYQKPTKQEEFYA

T2: Human CD138 His (Homo sapiens, UniProt P18827)
T2 construct: His
T2 sequence (P18827 23-310): T1 sequence (P18827 23-310)

B1: 13P30A7 hIgG1: chimeric antibody: murine variable regions of F13P30A7 (SEQ ID NO:83, 35), constant regions of human IgG1, kappa (antibody, listed as Mus musculus, V domains shown)
VH: EVQLVESGGGLVQPKGSLKLSCAASGFTFNTYAMNWVRQAPGKGLEWIARIRSKSNNYATYYADSVKDRFTISRDDSQSLLYLQMNNLKTEDTAIFYCVTDYGYVYFDAWGAGTTVTVSS
VL: NIIMTQSPKSMAMSVGERVTLSCKASENVGNYVSWYQQKPEQSPKLLIYGASYRYTGVPDRFTGSGSGTDFTLTISSVQAEDLADYHCGQSSRYPLTFGAGTKLELKR
modifications: human IgG1 and kappa constant regions
B2: F13P18D8: murine anti-CD138 hybridoma antibody; VH SEQ ID NO:84, VL SEQ ID NO:36 (antibody, listed as Mus musculus, V domains shown)
VH: B1 VH with V5L, K15E, T28A, I48L, S79G, L80M, I95M, F96Y, G103Y, A109V
VL: B1 VL with I3V, A12S, N31T, P40S, E41D, Y53N, G68A, S76T, A80S
B3: F13P30A7: murine anti-CD138 hybridoma antibody; VH SEQ ID NO:83, VL SEQ ID NO:35 (antibody, listed as Mus musculus, V domains shown)
VH: B1 VH
VL: B1 VL

Legend:
[1] = system: cyno CD138; assay: FACS binding to Expi293 cells transfected with cyno CD138; set-up: species or system cynomolgus monkey; conditions: 3-fold dilutions from 33.3 μg/mL
Chain of cyno CD138 (as listed by the source): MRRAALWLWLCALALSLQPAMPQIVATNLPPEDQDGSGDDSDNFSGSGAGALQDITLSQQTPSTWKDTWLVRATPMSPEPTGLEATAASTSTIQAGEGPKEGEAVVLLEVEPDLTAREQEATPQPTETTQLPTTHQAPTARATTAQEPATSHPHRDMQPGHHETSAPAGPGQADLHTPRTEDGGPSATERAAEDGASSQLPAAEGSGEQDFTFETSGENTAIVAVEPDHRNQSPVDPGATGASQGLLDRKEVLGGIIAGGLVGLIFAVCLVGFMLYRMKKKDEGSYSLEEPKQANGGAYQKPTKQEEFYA
Protocol: (§1) 12P16F6 hIgG1 or 13P30A7 hIgG1 were tested for cross-reactivity to cynomolgus monkey CD138. Antibodies that cross-react with CD138 from cynomolgus monkey (cyno) have an advantage that they can be tested for toxicity in this strain of non-human primate prior to conducting efficacy trials. Briefly, a vector directing the cell-surface expression of human CD138 or cyno CD138 was transfected in Expi293 cells. Binding of 12P16F6 hIgG1 and 13P30A7 hIgG1 to transfected Expi293 cells was tested at 3-fold dilutions starting at 33.3 μg/mL.

[2] = biological target: T1, human CD138; assay: FACS binding to Expi293 cells transfected with human CD138; conditions: 3-fold dilutions from 33.3 μg/mL
Protocol: as §1

[3] = biological target: T2, Human CD138 His; assay: SPR kinetic binding, human CD138; conditions: bivalent analyte fit
Protocol: Murine IgGs were purified from the hybridoma supernatants and the IgGs were subject to SPR (surface plasmon resonance) for kinetic binding measurements. Human or mouse CD138 His was immobilized on a GLM chip at […] on a BioRad Proteon. […] KDs were measured using bivalent analyte fit.

Molecule | binding to cynomolgus CD138 expressing cells [1] | binding to human CD138 expressing cells [2] | hCD138 ka [3] [M⁻¹ s⁻¹] | hCD138 kd [3] [s⁻¹]
B1 | specific binding | specific binding | – | –
B2 | – | – | 278000 | 0.000523
B3 | – | – | 238000 | 0.00127
